In patent US20200079833A1 (AstraZeneca / MedImmune, published 2020):
Starred links: 1 amine or outer side, 2 acyl side, 3 side chain; linkers in the order of their positions; H or OH if unused. Non-standard residues stand in square brackets, D forms with d. Groups on a side chain read outwards from the residue. Primed or numbered codes have the meaning given here. No end group written: not given here. *: point of attachment. γGlu = O=C(O)[C@H](CCC(=O)[*:2])N[*:1]; Stearoyl = CCCCCCCCCCCCCCCCCC(=O)*; αMeF = C[C@](N)(Cc1ccccc1)C(=O)O; αMeK = C[C@](N)(CCCCN)C(=O)O; αMeS = C[C@](N)(CO)C(=O)O; PEG2′ = not defined here; Aib = CC(C)(N)C(=O)O; Ahx = NCCCCCC(=O)O

T1: glucose-dependent insulinotropic peptide (gastric inhibitory polypeptide) receptor (GIPR) (human, UniProt P48546 22-466)
T1 sequence (looked up): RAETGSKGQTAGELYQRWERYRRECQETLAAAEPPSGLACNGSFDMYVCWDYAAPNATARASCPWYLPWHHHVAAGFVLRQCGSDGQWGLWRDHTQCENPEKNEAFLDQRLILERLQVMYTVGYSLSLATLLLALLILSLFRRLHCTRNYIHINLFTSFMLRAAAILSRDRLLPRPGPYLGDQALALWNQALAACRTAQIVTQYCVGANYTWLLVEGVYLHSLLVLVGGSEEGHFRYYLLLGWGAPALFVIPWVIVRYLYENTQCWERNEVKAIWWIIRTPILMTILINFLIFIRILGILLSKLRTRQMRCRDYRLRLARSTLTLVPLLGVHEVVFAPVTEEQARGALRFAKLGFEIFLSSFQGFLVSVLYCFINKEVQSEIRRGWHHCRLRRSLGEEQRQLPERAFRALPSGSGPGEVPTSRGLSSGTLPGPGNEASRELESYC

B1: SEQ ID NO 151 (peptide)
peptide: H[Aib]EGS[αMeF]TSDV[αMeS]S[αMeF]LEGEAAK([Ahx-Ahx-Ahx-Stearoyl])E[αMeF]IA[αMeF]VV[αMeK]GG-NH2
modifications: N-terminus assumed
SMILES: CCCCCCCCCCCCCCCCCC(=O)NCCCCCC(=O)NCCCCCC(=O)NCCCCCC(=O)NCCCC[C@H](NC(=O)[C@H](C)NC(=O)[C@H](C)NC(=O)[C@H](CCC(=O)O)NC(=O)CNC(=O)[C@H](CCC(=O)O)NC(=O)[C@H](CC(C)C)NC(=O)[C@](C)(Cc1ccccc1)NC(=O)[C@H](CO)NC(=O)[C@](C)(CO)NC(=O)[C@@H](NC(=O)[C@H](CC(=O)O)NC(=O)[C@H](CO)NC(=O)[C@@H](NC(=O)[C@](C)(Cc1ccccc1)NC(=O)[C@H](CO)NC(=O)CNC(=O)[C@H](CCC(=O)O)NC(=O)C(C)(C)NC(=O)[C@@H](N)Cc1c[nH]cn1)[C@@H](C)O)C(C)C)C(=O)N[C@@H](CCC(=O)O)C(=O)N[C@@](C)(Cc1ccccc1)C(=O)N[C@H](C(=O)N[C@@H](C)C(=O)N[C@@](C)(Cc1ccccc1)C(=O)N[C@H](C(=O)N[C@H](C(=O)N[C@@](C)(CCCCN)C(=O)NCC(=O)NCC(N)=O)C(C)C)C(C)C)[C@@H](C)CC
B2: SEQ ID NO 149 (peptide)
peptide: H[Aib]EGS[αMeF]TSDV[αMeS]S[αMeF]LEGEAAK([Ahx-Stearoyl])E[αMeF]IA[αMeF]VV[αMeK]GG-NH2
modifications: N-terminus assumed
SMILES: CCCCCCCCCCCCCCCCCC(=O)NCCCCCC(=O)NCCCC[C@H](NC(=O)[C@H](C)NC(=O)[C@H](C)NC(=O)[C@H](CCC(=O)O)NC(=O)CNC(=O)[C@H](CCC(=O)O)NC(=O)[C@H](CC(C)C)NC(=O)[C@](C)(Cc1ccccc1)NC(=O)[C@H](CO)NC(=O)[C@](C)(CO)NC(=O)[C@@H](NC(=O)[C@H](CC(=O)O)NC(=O)[C@H](CO)NC(=O)[C@@H](NC(=O)[C@](C)(Cc1ccccc1)NC(=O)[C@H](CO)NC(=O)CNC(=O)[C@H](CCC(=O)O)NC(=O)C(C)(C)NC(=O)[C@@H](N)Cc1c[nH]cn1)[C@@H](C)O)C(C)C)C(=O)N[C@@H](CCC(=O)O)C(=O)N[C@@](C)(Cc1ccccc1)C(=O)N[C@H](C(=O)N[C@@H](C)C(=O)N[C@@](C)(Cc1ccccc1)C(=O)N[C@H](C(=O)N[C@H](C(=O)N[C@@](C)(CCCCN)C(=O)NCC(=O)NCC(N)=O)C(C)C)C(C)C)[C@@H](C)CC
B3: SEQ ID NO 148 (peptide)
peptide: H[Aib]EGS[αMeF]TSDV[αMeS]S[αMeF]LEGEAAK([γGlu-γGlu-γGlu-Stearoyl])E[αMeF]IA[αMeF]VV[αMeK]GG-NH2
modifications: N-terminus assumed
SMILES: CCCCCCCCCCCCCCCCCC(=O)N[C@@H](CCC(=O)N[C@@H](CCC(=O)N[C@@H](CCC(=O)NCCCC[C@H](NC(=O)[C@H](C)NC(=O)[C@H](C)NC(=O)[C@H](CCC(=O)O)NC(=O)CNC(=O)[C@H](CCC(=O)O)NC(=O)[C@H](CC(C)C)NC(=O)[C@](C)(Cc1ccccc1)NC(=O)[C@H](CO)NC(=O)[C@](C)(CO)NC(=O)[C@@H](NC(=O)[C@H](CC(=O)O)NC(=O)[C@H](CO)NC(=O)[C@@H](NC(=O)[C@](C)(Cc1ccccc1)NC(=O)[C@H](CO)NC(=O)CNC(=O)[C@H](CCC(=O)O)NC(=O)C(C)(C)NC(=O)[C@@H](N)Cc1c[nH]cn1)[C@@H](C)O)C(C)C)C(=O)N[C@@H](CCC(=O)O)C(=O)N[C@@](C)(Cc1ccccc1)C(=O)N[C@H](C(=O)N[C@@H](C)C(=O)N[C@@](C)(Cc1ccccc1)C(=O)N[C@H](C(=O)N[C@H](C(=O)N[C@@](C)(CCCCN)C(=O)NCC(=O)NCC(N)=O)C(C)C)C(C)C)[C@@H](C)CC)C(=O)O)C(=O)O)C(=O)O
B4: SEQ ID NO 150 (peptide)
peptide: H[Aib]EGS[αMeF]TSDV[αMeS]S[αMeF]LEGEAAK([Ahx-Ahx-Stearoyl])E[αMeF]IA[αMeF]VV[αMeK]GG-NH2
modifications: N-terminus assumed
SMILES: CCCCCCCCCCCCCCCCCC(=O)NCCCCCC(=O)NCCCCCC(=O)NCCCC[C@H](NC(=O)[C@H](C)NC(=O)[C@H](C)NC(=O)[C@H](CCC(=O)O)NC(=O)CNC(=O)[C@H](CCC(=O)O)NC(=O)[C@H](CC(C)C)NC(=O)[C@](C)(Cc1ccccc1)NC(=O)[C@H](CO)NC(=O)[C@](C)(CO)NC(=O)[C@@H](NC(=O)[C@H](CC(=O)O)NC(=O)[C@H](CO)NC(=O)[C@@H](NC(=O)[C@](C)(Cc1ccccc1)NC(=O)[C@H](CO)NC(=O)CNC(=O)[C@H](CCC(=O)O)NC(=O)C(C)(C)NC(=O)[C@@H](N)Cc1c[nH]cn1)[C@@H](C)O)C(C)C)C(=O)N[C@@H](CCC(=O)O)C(=O)N[C@@](C)(Cc1ccccc1)C(=O)N[C@H](C(=O)N[C@@H](C)C(=O)N[C@@](C)(Cc1ccccc1)C(=O)N[C@H](C(=O)N[C@H](C(=O)N[C@@](C)(CCCCN)C(=O)NCC(=O)NCC(N)=O)C(C)C)C(C)C)[C@@H](C)CC
B5: SEQ ID NO 146 (peptide)
peptide: H[Aib]EGS[αMeF]TSDV[αMeS]S[αMeF]LEGEAAK([γGlu-Stearoyl])E[αMeF]IA[αMeF]VV[αMeK]GG-NH2
modifications: N-terminus assumed
SMILES: CCCCCCCCCCCCCCCCCC(=O)N[C@@H](CCC(=O)NCCCC[C@H](NC(=O)[C@H](C)NC(=O)[C@H](C)NC(=O)[C@H](CCC(=O)O)NC(=O)CNC(=O)[C@H](CCC(=O)O)NC(=O)[C@H](CC(C)C)NC(=O)[C@](C)(Cc1ccccc1)NC(=O)[C@H](CO)NC(=O)[C@](C)(CO)NC(=O)[C@@H](NC(=O)[C@H](CC(=O)O)NC(=O)[C@H](CO)NC(=O)[C@@H](NC(=O)[C@](C)(Cc1ccccc1)NC(=O)[C@H](CO)NC(=O)CNC(=O)[C@H](CCC(=O)O)NC(=O)C(C)(C)NC(=O)[C@@H](N)Cc1c[nH]cn1)[C@@H](C)O)C(C)C)C(=O)N[C@@H](CCC(=O)O)C(=O)N[C@@](C)(Cc1ccccc1)C(=O)N[C@H](C(=O)N[C@@H](C)C(=O)N[C@@](C)(Cc1ccccc1)C(=O)N[C@H](C(=O)N[C@H](C(=O)N[C@@](C)(CCCCN)C(=O)NCC(=O)NCC(N)=O)C(C)C)C(C)C)[C@@H](C)CC)C(=O)O
B6: SEQ ID NO 147 (peptide)
peptide: H[Aib]EGS[αMeF]TSDV[αMeS]S[αMeF]LEGEAAK([γGlu-γGlu-Stearoyl])E[αMeF]IA[αMeF]VV[αMeK]GG-NH2
modifications: N-terminus assumed
SMILES: CCCCCCCCCCCCCCCCCC(=O)N[C@@H](CCC(=O)N[C@@H](CCC(=O)NCCCC[C@H](NC(=O)[C@H](C)NC(=O)[C@H](C)NC(=O)[C@H](CCC(=O)O)NC(=O)CNC(=O)[C@H](CCC(=O)O)NC(=O)[C@H](CC(C)C)NC(=O)[C@](C)(Cc1ccccc1)NC(=O)[C@H](CO)NC(=O)[C@](C)(CO)NC(=O)[C@@H](NC(=O)[C@H](CC(=O)O)NC(=O)[C@H](CO)NC(=O)[C@@H](NC(=O)[C@](C)(Cc1ccccc1)NC(=O)[C@H](CO)NC(=O)CNC(=O)[C@H](CCC(=O)O)NC(=O)C(C)(C)NC(=O)[C@@H](N)Cc1c[nH]cn1)[C@@H](C)O)C(C)C)C(=O)N[C@@H](CCC(=O)O)C(=O)N[C@@](C)(Cc1ccccc1)C(=O)N[C@H](C(=O)N[C@@H](C)C(=O)N[C@@](C)(Cc1ccccc1)C(=O)N[C@H](C(=O)N[C@H](C(=O)N[C@@](C)(CCCCN)C(=O)NCC(=O)NCC(N)=O)C(C)C)C(C)C)[C@@H](C)CC)C(=O)O)C(=O)O
B7: SEQ ID NO 152 (peptide)
peptide: H[Aib]EGS[αMeF]TSDV[αMeS]S[αMeF]LEGEAAK([PEG2′-Stearoyl])E[αMeF]IA[αMeF]VV[αMeK]GG-NH2

How the values were obtained:
Test in all cases: cell-based or functional assay
glucagon receptor (GCGR) = glucagon receptor (GCGR) (human, UniProt P47871 26-477)
Sequence of glucagon receptor (GCGR) (P47871 26-477): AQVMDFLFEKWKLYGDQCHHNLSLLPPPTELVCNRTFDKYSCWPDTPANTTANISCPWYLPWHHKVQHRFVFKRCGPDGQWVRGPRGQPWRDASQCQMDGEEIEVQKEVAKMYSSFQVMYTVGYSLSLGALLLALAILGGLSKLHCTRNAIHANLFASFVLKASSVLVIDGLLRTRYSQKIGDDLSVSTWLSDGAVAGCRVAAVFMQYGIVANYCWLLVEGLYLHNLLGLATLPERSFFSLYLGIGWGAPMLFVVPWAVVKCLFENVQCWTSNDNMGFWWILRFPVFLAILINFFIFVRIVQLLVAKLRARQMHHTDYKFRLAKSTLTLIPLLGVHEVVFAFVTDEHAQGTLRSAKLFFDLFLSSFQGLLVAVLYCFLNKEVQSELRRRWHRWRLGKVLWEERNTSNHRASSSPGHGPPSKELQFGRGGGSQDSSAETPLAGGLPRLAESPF

[1] = molecular target: T1, glucose-dependent insulinotropic …
GLP-1 receptor (GLP-1R) = GLP-1 receptor (GLP-1R) (human, UniProt P43220 24-463)

Binder	cAMP Primary assay EC50 Gluc-R (glucagon receptor (GCGR)) [nM]	cAMP Primary assay EC50 Gluc-R (2nd) (glucagon receptor (GCGR)) [nM]	cAMP Primary assay EC50 GIP-R [1] [nM]	cAMP Primary assay EC50 GIP-R (2nd) [1] [nM]	cAMP Mean pM GLP-1R (GLP-1 receptor (GLP-1R)) [pM]	cAMP Primary assay EC50 GLP-1R n1 (GLP-1 receptor (GLP-1R)) [nM]	cAMP Primary assay EC50 GLP-1R n2 (GLP-1 receptor (GLP-1R)) [nM]
B1	26	26	26	26	18.2	0.022	0.015
B2	28	28	28	28	66.2	0.081	0.051
B3	26	26	26	26	12.1	0.016	0.0087
B4	27	27	27	27	25.4	0.028	0.022
B5	28	28	28	28	69	0.096	0.042
B6	27	27	27	27	23.2	0.032	0.014
B7	28	28	28	28	34.7	0.039	0.031
